According to patent US20100323957A1, “NOVEL ASSAY FOR INHIBITORS OF EGFR” (THE REGENTS OF THE UNIVERSITY OF CALIFORNIA THE OFFICE OF …, priority 2007, published 2010):

Tests used:
[1] = biological target: EGFR kinase domain I682Q mutant with N-terminal His tag and linker (human) (UniProt P00533); experiment: anisotropy
[2] = biological target: wild-type EGFR kinase domain (residues 672-998 of human EGFR) with N-terminal 6-His tag, linker and TEV site (human) (UniProt P00533); experiment: cell-based or functional assay
[3] = biological target: EGFR kinase domain L834R mutant (human) (UniProt P00533); experiment: cell-based or functional assay

Sequence of 30-residue fluorescein-labelled MIG6 peptide (residues 334-363) (Q9UJM3 334-363): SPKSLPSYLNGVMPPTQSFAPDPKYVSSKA

Substance | IC50, inhibition of kinase activity in solution [3] [µM] | other results
30-residue fluorescein-labelled MIG6 peptide (residues 334-363) (from UniProt Q9UJM3 334-363) | – | Kd [1]: 18.3 µM
40-residue MIG6 peptide (residues 325-364) (from UniProt Q9UJM3 325-364) | – | IC50, inhibition of activated EGFR kinase [2]: 10 µM
MIG6(segments 1-2) peptide (residues 336-412) (from UniProt Q9UJM3 336-412) | 0.2 | –
MIG6(segments 1-2) peptide (residues 336-412) bearing Y358A (from UniProt Q9UJM3 336-412) | 5 | –
